{"source": "patent US20150175697A1", "about": "(MacroGenics, published 2015)", "binders": {"B1": {"name": "h3G8 covalent monospecific diabody (CMD) (other)", "chain": "DIVMTQSPDSLAVSLGERATINCKASQSVDFDGDSFMNWYQQKPGQPPKLLIYTTSNLESGVPDRFSGSGSGTDFTLTISSLQAEDVAVYYCQQSNEDPYTFGQGTKLEIKGGGSGGGGQVTLRESGPALVKPTQTLTLTCTFSGFSLSTSGMGVGWIRQPPGKALEWLAHIWWDDDKRYNPALKSRLTISKDTSKNQVVLTMTNMDPVDTATYYCAQINPAWFAYWGQGTLVTVSSLGGC", "modifications": "covalent homodimer: two copies of this chain, disulfide-linked through the C-terminal LGGC cysteine", "notes": "covalent homodimer; also called h3G8 CMD; h3G8 diabody"}}, "key": {"soluble CD32B (sCD32B)": {"target": "T1, soluble CD32B (sCD32B) (human, UniProt P31994 43-217)", "T1 construct": "extracellular domain; also called FcγRIIB; soluble CD32B ectodomain", "T1 sequence (looked up)": "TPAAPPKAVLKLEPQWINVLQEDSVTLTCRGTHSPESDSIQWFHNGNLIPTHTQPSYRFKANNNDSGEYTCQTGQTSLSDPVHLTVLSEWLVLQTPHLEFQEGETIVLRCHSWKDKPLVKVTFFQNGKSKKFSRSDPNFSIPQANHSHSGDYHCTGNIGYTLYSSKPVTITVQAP", "assay": "sandwich ELISA: sCD32B coated (sCD32B-Ig, 2 ug/ml), diabody titrated, labelled sCD16A as probe"}, "soluble CD32A (sCD32A)": {"target": "T2, soluble CD32A (sCD32A) (UniProt P12318 34-217, limits assumed)", "T2 construct": "extracellular domain; also called sCD32A (negative control)", "T2 sequence (looked up)": "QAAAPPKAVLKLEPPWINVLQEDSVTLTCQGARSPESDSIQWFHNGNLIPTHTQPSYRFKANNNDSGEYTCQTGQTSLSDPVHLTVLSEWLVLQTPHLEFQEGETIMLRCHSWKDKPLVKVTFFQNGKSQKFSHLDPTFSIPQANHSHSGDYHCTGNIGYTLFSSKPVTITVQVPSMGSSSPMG", "assay": "SPR (BIAcore): sCD32A (negative control) immobilised, diabody injected for 60 s"}, "sCD32B-Ig": {"target": "T3, sCD32B-Ig (UniProt P31994 43-217)", "T3 construct": "extracellular domain; also called CD32B-Fc; CD32-Fc; not shown: Ig/Fc part not described", "T3 sequence (looked up)": "T1 sequence (looked up)", "assay": "sandwich ELISA, sCD32B-Ig coat, sCD16A probe"}, "[1]": {"target": "T4, human serum albumin (HSA) (human, UniProt P02768 25-609)", "T4 construct": "also called HRP-human albumin", "assay": "HSA binding class"}}, "data": [{"binder": "B1", "values": [{"measurement": "binding result", "setting": "soluble CD32B (sCD32B)", "result": "no binding (tested: 0.5 ug/ml)"}, {"measurement": "binding result", "setting": "soluble CD32A (sCD32A)", "result": "no binding (tested: 100 nM)"}, {"measurement": "binding result", "setting": "sCD32B-Ig", "result": "no binding (tested: 0.5 µg/ml to 0.001 µg/ml)"}]}, {"binder": "LAEAKVLANRELDKYGVSDYYKNGANNAKTAEGVKALIDEILAALP (other, also called 64G/65A/71A)", "note": "[ABD3 L64G/I65A/V71A]", "values": [{"measurement": "HSA binding", "setting": "[1]", "result": "< 0.1"}]}]}
